Laboratory results: the supplement of paper PMC9170038

Tested on: K4 kissing-loop RNA reporter
Assay: apparent KD of K4 kissing-loop reporter; higher = weaker reporter binding
Details: Eterna round: R107
Experimental: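 RNA-MaP round R107: designed RNA switches with theophylline, tryptophan, arginine or FMN aptamers are transcribed on-chip within common flanks. They are titrated with a labelled K4 kissing-loop RNA reporter in RNA-MaP buffer (100 mM Tris pH 7.5, 80 mM KCl, 4 mM MgCl2), without ligand or with the indicated ligand. Median apparent KD per design.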

[1] = input ligand: theophylline 20 uM
[2] = input ligand: tryptophan 2.4 mM
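Also: bound reporter read as fluorescence of individual clusters on recovered sequencing chips by microscopy, with normalized cluster intensities fitted with a binding model.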

Row | Sequence | apparent KD of K4 kissing-loop reporter (input ligand: FMN 200 uM) | apparent KD of K4 kissing-loop reporter (input ligand: arginine 13.2 mM) | apparent KD of K4 kissing-loop reporter (input ligand: none) | apparent KD of K4 kissing-loop reporter [1] | apparent KD of K4 kissing-loop reporter [2]
1 | AUUAAUAACUGAGGAUAUCGUUUUACUGUAGUGAUGUUACAGAAAAUUCACAUUAUAAUUUCUAUUCGAGAAGGCAGAAUAAUUA [JR_ExcFMNB_Sub014] | 106 nM | 74.6 nM | 65.2 nM | 71.9 nM | 65.1 nM
2 | AUUAAUUUCAGAGGAUAUCGUGAUUUUGUUUAAUUUAUUCAUUUGUGCAGUGAUGUUGCUAAUAUUCGAGAAGGCUGAUUUAUAA [whbob_Ex_FMNB__2th225] | 161 nM | 134 nM | 63.3 nM | 132 nM | 53.3 nM
3 | AUUGUCGGAGUCUGUGCUGACUGACGAGCAAAGGAUAUGUUAUUAAACAGAAGGUUGUGCUGCUUAAGUGAUGUUUUUGGAGCUA [theeternabot_sameState_KL_FMN_A_26] | 308 nM | 190 nM | 239 nM | 228 nM | 216 nM
4 | AUUUAUUACAGAAGGAGCGUGUAUUUAUAAUCAUUUAUCUUAGCGAGUGAUGUUCGCUUUACACAGGUAGGUCGCUGUUUAUUUA [JR_Nu_ExcArginiB_Sub027] | 110 nM | 128 nM | 120 nM | 133 nM | 90.2 nM
5 | AUUUUUAACUGAGGAUAUCGAAUUUAUGUAGUGAUGUUACUUUAAAUUAAAAUUUUAAUUUCUUAACGAGAAGGCAGAAUAAUUA [JR_SSFMNB_Sub025] | 111 nM | 194 nM | 109 nM | 204 nM | 85.4 nM
6 | AUUUUUUACAGAAGGAGCGUGUUUUUAUAAUCAUUUAUCUUAGCGAGUGAUGUUCGCUUUACACAGGUAGGUCGCUGUUUAUUUA [JR_Nu_ExcArginiB_Sub028] | 119 nM | 130 nM | 121 nM | 121 nM | 85.7 nM
7 | CAACCGUAACACGAUACCAGCCUAGAAGCCAGUGAUGUUGGCCUUUUUUCGGAAAUGAAAGGCCCUUGGCAGCGUGGAUGAACUG [Dibibiquus] | 468 nM | 304 nM | 380 nM | 462 nM | 338 nM
8 | CAACUACCCGGAAGGAGCGCGGGUGUAAAUCAAAGGGCUUGAGUGAUGUUCAAGCGGAACCCGCAGGUAGGUCGCCGGGAAGCCC [Quaneson] | 113 nM | 114 nM | 119 nM | 114 nM | 122 nM
9 | CAAGGGCAAGUCGAUACCAGAGACACAUACCCGCAGUGAUGUUGCAGGAAACAGUUACUUCUCCCUUGGCAGCGAAUGCGACUUC [theeternabot_sameState_KL_Theo_B_45] | 348 nM | 313 nM | 344 nM | 309 nM | 332 nM
10 | CACGCCUGUUGUCUGGUAGACAGAUCAGAUACCAGACAUAGUGAUGUCCCUUGGCAGCUGAACAUCCAGUGAUGUUGGAUGCGUU [Theo A SS t11] | 447 nM | 333 nM | 446 nM | 394 nM | 371 nM
11 | CAGAACAUAUAUAGAAACUAUAUAUGAGAUACCAGUCAAAUUAAAGACCCUUGGCAGCUCAGGCGAGUGAUGUUCGCAGGCUAAC [Astros-Gfrank-modulation#2] | 95.9 nM | 109 nM | 102 nM | 122 nM | 88.3 nM
12 | CAUAGGAAACUAUGUAUCUCUCCGACUGAAGGAGCGCGUGAAAACGCAGGUAGGUCGCAGAAUUUAACGGAGAGUGAUGUUCUCU [Ex Arginine A K4 10] | 345 nM | 295 nM | 338 nM | 385 nM | 344 nM
13 | CAUAGGAAACUAUGUAUCUCUCUUACUGAAGGAGCGCGUGAAAACGCAGGUAGGUCGCAGAAUUUAAUAGAGAGUGAUGUUCUCU [Ex Arginine A K4 7] | 239 nM | 202 nM | 254 nM | 244 nM | 208 nM
14 | CAUGGUGCUCGCCAGUUGUGCGAACGGUGGGAGGAUAUGUCGCGAGACAGAAGGCCCAGUGAUGUUGGGCAGGCUCGUAGAUCGA [Mazadi] | 158 nM | 113 nM | 129 nM | 165 nM | 127 nM
15 | CCAUCGCUAUUCGAUACCAGCUACUUAGUGAUGUUAAGUUUUUAUCCACUGUAGGUGGAAAGCCCUUGGCAGCGAAUAGUGAUGG [Theophylline B K4 26] | 442 nM | 357 nM | 474 nM | 234 nM | 417 nM
16 | CCAUUCUGUUACGAUACCAGUCAAAGAUAUUUGAUCAAUACCCUCGCCGAGUGAUGUUCGGACCCUUGGCAGCGUCUGGGACAGG [fdxxvmullin] | 1320 nM | 437 nM | 558 nM | 427 nM | 550 nM
17 | CCCAGUGAUGUUGGUUAAUAUAUUGAUUAACGAGGACCGGUACGGCCGCCACUCGAUAUUUCUAUAAUUAAAAGUUUUGUUUAAA [JR_SSTryptoA_Sub001] | 459 nM | 426 nM | 435 nM | 417 nM | 327 nM
18 | CCGCGGCAAGCUCCGGAACCCAUAUUCGAUACCAGCCUUAUCACGGGCCCUUGGCAGCGAGCGUUAGUGAUGUUAGCGGCAUGGU [theeternabot_sameState_KL_Theo_A_27] | 528 nM | 256 nM | 311 nM | 276 nM | 384 nM
19 | CCGGAGGAAGUCGCUUUUCCUGUGGCAUAGAAGGAUAUCCAAUUAAGGAGAAGGUCUAUCUGCCUUAGUGAUGUUAGGAAGUAGA [theeternabot_sameState_KL_FMN_A_23] | 172 nM | 89.1 nM | 135 nM | 162 nM | 167 nM
20 | CCUAUCUCAUACGAUACCAGUCAAUAUAAACGAGUGAUGUUCGAAAUAAUAUGCCAUCACGACCCUUGGCAGCGUAUGGGAUAGG [Ex Theophylline B K4 6] | 158 nM | 88.8 nM | 141 nM | 214 nM | 126 nM
21 | CCUAUCUCAUACGAUACCAGUCAAUGAGAUUUUAUCAAUGCCAUCACCGAGUGAUGUUCGGACCCUUGGCAGCGUAUGGGAUAGG [#02 K4 Theophylline B Exclusion] | 236 nM | 185 nM | 217 nM | 298 nM | 221 nM
22 | CCUAUCUCAUACGAUACCAGUGAUUAACCAGUGAUGUUGGAAUAACCAAGGAAUAUUUAUCACCCUUGGCAGCGUAUGGGAUAGG [Ex Theophylline B K4 28] | 99.8 nM | 54.4 nM | 83.3 nM | 115 nM | 69.4 nM

Row | Sequence | apparent KD of K4 kissing-loop reporter (input ligand: FMN 200 uM) | apparent KD of K4 kissing-loop reporter (input ligand: arginine 13.2 mM) | apparent KD of K4 kissing-loop reporter (input ligand: none) | apparent KD of K4 kissing-loop reporter [1] | apparent KD of K4 kissing-loop reporter [2]
23 | CCUUGGGCACGCCCACUAGGAAGCUAGUCUAAGGAUAUCGACUGGACGAGAAGGUAGACGGACCCGAGUGAUGUUCGGACAUAGG [theeternabot_sameState_KL_FMN_A_1] | 469 nM | 260 nM | 215 nM | 179 nM | 200 nM
24 | CGACUAUUUCGAUAGUCGAUAGACACGGAAGGAGCGGGAUUCGUCCCAGGUAGGUCGCCGUGAAGUUGAGUGAUGUUCAACGUGU [Arg A SS t13] | 160 nM | 155 nM | 155 nM | 170 nM | 147 nM
25 | CGAGAAUGUCGACAGUCAUCGGUCCAUGCACGAGGACCGGUACGGCCGCCACUCGAGCGUGGCAGUGAUGUUGCCAGCGCACUAA [KL-XTryp-A14] | 99.6 nM | 85.1 nM | 86.3 nM | 86 nM | 100 nM
26 | CGAGAGCUCUUGUUUGGAUGUGUUUUAUGGCGAGGACCGGUACGGCCGCCACUCGGGUGAUGUUAGUGAUGUUGAUGUAGUGAUG [qzxmullin] | 118 nM | 79.6 nM | 92.7 nM | 154 nM | 91.4 nM
27 | CGAGUGAUGUUCGUUCGUAUAUUUGGGUGACAGGAUAUGCGGAAACGCAGAAGGGUCGCCUUCGGGUUACCCGAAUUGGCGUUUU [FMN A Model 2] | 444 nM | 402 nM | 546 nM | 461 nM | 455 nM
28 | CGAGUGAUGUUCGUUUUUUACUCUGUUUGACAGGAUAUGCGGAAACGCAGAAGGGUCACCUUUGAGUUAGACGGAGUUAUUUUUU [Ex FMN A 21] | 409 nM | 287 nM | 322 nM | 309 nM | 290 nM
29 | CGAUUCAUGGCGGCCGCCACUCGCGAAGCUCCCGUUACGAUGUCCGCAACAGUGAUGUUGUUGCCGAGGACCGGGCCGAGAUCCA [theeternabot_exclusion_KL_Trp_B_31] | 283 nM | 173 nM | 228 nM | 211 nM | 218 nM
30 | CGCAAGCAGCCAGUGAUGUUGGCCGCCUUGCGAGGACCGGUACGGCCGCCACUCGAAGGCGGCUACUGGUAAACCGUCUAACGGA [Oronorenma] | 94.9 nM | 71.7 nM | 66.4 nM | 62.8 nM | 90.1 nM
31 | CGCAGUGAUGUUGCUAUUAUUCUUGAUUAACGAGGACCGGUACGGCCGCCACUCGAUUUCUAUCUAAUUUAGUGUUAUGUUGAUU [JR_ExcTryptoA_Sub007] | 351 nM | 423 nM | 397 nM | 447 nM | 256 nM
32 | CGCAGUGAUGUUGCUAUUAUUCUUGAUUAACGAGGACCGGUACGGCCGCCACUCGAUUUCUAUCUUAUUUUGUGUUAUGUUGAUU [JR_ExcTryptoA_Sub008] | 306 nM | 359 nM | 333 nM | 417 nM | 225 nM
33 | CGCGCUGGUUGAGAGGUUGGCGCGAAUGAUACCAGUAUAUAAGAAUACCCUUGGCAGCAUAAGAAAGAUAUAGUGAUGUUGUAUA [SSTheophA.H] | 592 nM | 344 nM | 404 nM | 448 nM | 370 nM
34 | CGCGUGGGUUUGAGAGGGUUUGUGCGAAGUGAGGAUAUUUAGGGAGAAAGAAGGCACUAUAAAAUAUAGUGAUGUUAUAUAAGGG [SSFMNA.K] | 295 nM | 226 nM | 275 nM | 225 nM | 227 nM
35 | CGGCUCAAUCCUAGUAUUAAGAGGGAGUUGCGAGGACCGGUACGGCCGCCACUCGAAGUAGUUUGGCCAGUGAUGUUGGUCUUAC [Mabeleon] | 203 nM | 194 nM | 210 nM | 204 nM | 121 nM
36 | CGUGAGGACCAGAGGUGAUGUAUAGUAUCGCGAGGACCGGUACGGCCGCCACUCGUGAAGAGAAAGGAGUGAUGUUCCGUAAUGG [Kazoo C10] | 343 nM | 292 nM | 304 nM | 377 nM | 110 nM
37 | CGUGCCCGGCCGGAUACCAGUGACCCGCUGGGAACCGCGGGCCCAGAGUGAUGUUCGGGACACCCUUGGCAGCCGCCUGGGCUGC [#2 Same State - Theophylline B Attempt #14 (HarryS)] | 540 nM | 395 nM | 757 nM | 375 nM | 415 nM
38 | CGUUUAUAGCAGGAUACCAGUGCGGAUAAGGUGCGUUAAUAGUAGAGUGAUGUUCUAAAGUACCCUUGGCAGCUUAGAGUGAGUG [#21 K4 Theophylline B Exclusion] | 202 nM | 144 nM | 145 nM | 273 nM | 108 nM
39 | CUAGGCAACACAGGAUAUGUCCGAGUGAUGUUCGAGCCUUUCCAUUGACGAAAUUAAUGGUGGGUGACAGAAGGGUGAGUGCUGA [Xezaqu] | 354 nM | 577 nM | 620 nM | 585 nM | 432 nM
40 | CUAUGGGUGGACGAUACCAGCUAGUGAUGUUAGCGGGUCGAGCACGCGCAUCGCCGUGGUAGCCCUUGGCAGCGUACAGAUGUUU [theeternabot_exclusion_KL_Theo_B_5] | 186 nM | 131 nM | 178 nM | 157 nM | 162 nM
41 | CUCGACACGGGAAGGAGCGGUUGCGUGUGCCAGUGAUGUUGGAUCAGCAGACUGCCCGGUAGCCAGGUAGGUCGCCUGUGCUGAG [Esbeescexe] | 219 nM | 166 nM | 162 nM | 189 nM | 142 nM
42 | CUCGAGUGAUGUUCGUUUAUUUAUACAGAUACCAGUGAAUUUUAACACCCUUGGCAGCUGGUUGUAUCUUUGUUUUUUACACAAG [JR_Nu_ExcTheophyA_Sub024] | 191 nM | 297 nM | 211 nM | 338 nM | 154 nM
43 | CUUACCCAUCGGAUGGAUCAACUGCACACGAAGGAUAUACACACGGGUAGAAGGUCGGGAUUCCAGUGAUGUUGGAUGGUACGAC [theeternabot_exclusion_KL_FMN_A_29] | 87.2 nM | 96.5 nM | 91.3 nM | 98.7 nM | 74.2 nM
